This is an account of results in patent publication US20190031781A1.

Experiment [1] deals with carboxymethyl lysine conjugated to keyhole limpet hemocyanin (CML-KLH). As to the kind of experiment: direct binding ELISA, CML-KLH coat 1 ug/mL, antibody at 50 ug/mL. Background: An ELISA detects its analyte on a solid surface through an enzyme-linked reagent.
For experiment [2] the target is unchanged. As to the kind of experiment: direct binding ELISA, CML-KLH coat 1 ug/mL, antibody at 0.07 ug/mL.
For experiment [3] the target is unchanged. As to the kind of experiment: direct binding ELISA, CML-KLH coat 1 ug/mL, antibody at 0.21 ug/mL.
For experiment [4] the target is unchanged. Put plainly: direct binding ELISA, CML-KLH coat 1 ug/mL, antibody at 0.62 ug/mL.
Experiment [5] has the same target. Put plainly: direct binding ELISA, CML-KLH coat 1 ug/mL, antibody at 1.85 ug/mL.
Experiment [6] shares this target. Put plainly: direct binding ELISA, CML-KLH coat 1 ug/mL, antibody at 5.56 ug/mL.
For experiment [7] the target is unchanged. As to the kind of experiment: direct binding ELISA, CML-KLH coat 1 ug/mL, antibody at 16.67 ug/mL.

Turning to “carboxymethyl lysine MAb (Clone 318003), R&D Systems, catalog no. MAB3247 (antibody)”, the OD450 in experiment [1] was 0.462; in experiment [2] it was 0.086; in experiment [3] it was 0.075; in experiment [4], 0.083; in experiment [5], 0.092; in experiment [6], 0.165. Further, the OD450 in experiment [7] worked out at 0.312.
